Data published in patent US20230074436A1 (DENALI THERAPEUTICS, published 2023).
No end group written: not given here. *: point of attachment. Biotin = O=C1N[C@H]2[C@H](CS[C@H]2CCCCC(=O)*)N1

Tests used:
asyn_113-127_125A = biological target: T1, asyn_113-127_125A (human); assay: Ala-scan peptide ELISA, row D, run 1
T1 construct: substitution is already in the entry; also called pep15
T1 peptide: Biotin-LEDMPVDPDNEAAEM

asyn_113-127_127A [1] = biological target: T2, asyn_113-127_127A (human); assay: Ala-scan peptide ELISA, row D, run 1
T2 construct: substitution is already in the entry; also called pep17
T2 peptide: Biotin-LEDMPVDPDNEAYEA

asyn_113-127_124G [2] = biological target: T3, asyn_113-127_124G (human); assay: Ala-scan peptide ELISA, row D, run 1
T3 construct: substitution is already in the entry; also called pep13
T3 peptide: Biotin-LEDMPVDPDNEGYEM

asyn_113-127_119A = biological target: T4, asyn_113-127_119A (human); assay: Ala-scan peptide ELISA, row D, run 1
T4 construct: substitution is already in the entry; also called pep8
T4 peptide: Biotin-LEDMPVAPDNEAYEM

asyn_113-127_120A [3] = biological target: T5, asyn_113-127_120A (human); assay: Ala-scan peptide ELISA, row D, run 1
T5 construct: substitution is already in the entry; also called pep9
T5 peptide: Biotin-LEDMPVDADNEAYEM

[4] = biological target: biotinylated human alpha-synuclein (human, UniProt P37840 1-140); assay: Ala-scan peptide ELISA, row D, run 1
asyn_113-127_121A [5] = biological target: T6, asyn_113-127_121A (human); assay: Ala-scan peptide ELISA, row D, run 1
T6 construct: substitution is already in the entry; also called pep10
T6 peptide: Biotin-LEDMPVDPANEAYEM

asyn_113-127_122A [6] = biological target: T7, asyn_113-127_122A (human); assay: Ala-scan peptide ELISA, row D, run 1
T7 construct: substitution is already in the entry; also called pep11
T7 peptide: Biotin-LEDMPVDPDAEAYEM

asyn_113-127_116A [7] = biological target: T8, asyn_113-127_116A (human); assay: Ala-scan peptide ELISA, row D, run 1
T8 construct: substitution is already in the entry; also called pep5
T8 peptide: Biotin-LEDAPVDPDNEAYEM

asyn_113-127_126A = biological target: T9, asyn_113-127_126A (human); assay: Ala-scan peptide ELISA, row D, run 1
T9 construct: substitution is already in the entry; also called pep16
T9 peptide: Biotin-LEDMPVDPDNEAYAM

asyn_113-127_115A = biological target: T10, asyn_113-127_115A (human); assay: Ala-scan peptide ELISA, row D, run 1
T10 construct: substitution is already in the entry; also called pep4
T10 peptide: Biotin-LEAMPVDPDNEAYEM

asyn_113-127_118A = biological target: T11, asyn_113-127_118A (human); assay: Ala-scan peptide ELISA, row D, run 1
T11 construct: substitution is already in the entry; also called pep7
T11 peptide: Biotin-LEDMPADPDNEAYEM

asyn_113-127_117A [8] = biological target: T12, asyn_113-127_117A (human); assay: Ala-scan peptide ELISA, row D, run 1
T12 construct: substitution is already in the entry; also called pep6
T12 peptide: Biotin-LEDMAVDPDNEAYEM

asyn_113-127_123A [9] = biological target: T13, asyn_113-127_123A (human); assay: Ala-scan peptide ELISA, row D, run 1
T13 construct: substitution is already in the entry; also called pep12
T13 peptide: Biotin-LEDMPVDPDNAAYEM

asyn_113-127_114A = biological target: T14, asyn_113-127_114A (human); assay: Ala-scan peptide ELISA, row D, run 1
T14 construct: substitution is already in the entry; also called pep3
T14 peptide: Biotin-LADMPVDPDNEAYEM

asyn_113-127_113A [10] = biological target: T15, asyn_113-127_113A (human); assay: Ala-scan peptide ELISA, row D, run 1
T15 construct: substitution is already in the entry; also called pep2
T15 peptide: Biotin-AEDMPVDPDNEAYEM

asyn_113-127 = biological target: T16, asyn_113-127 (human); assay: Ala-scan peptide ELISA, row D, run 1
T16 construct: also called pep1
T16 peptide: Biotin-LEDMPVDPDNEAYEM

asyn_113-127_124P [11] = biological target: T17, asyn_113-127_124P (human); assay: Ala-scan peptide ELISA, row D, run 1
T17 construct: substitution is already in the entry; also called pep14
T17 peptide: Biotin-LEDMPVDPDNEPYEM

[12] = biological target: T18, alpha-synuclein peptide 1-95 (human); assay: ELISA, plate coated with the peptide or protein, antibody titrated, anti-rat HRP, A450
T18 construct: synthetic peptide coated on plate

[13] = biological target: T19, alpha-synuclein peptide 95-140 (human); assay: as above
T19 construct: synthetic peptide coated on plate

[14] = biological target: T20, alpha-synuclein peptide 1-61 (human); assay: as above
T20 construct: synthetic peptide coated on plate

[15] = biological target: human alpha-synuclein monomer (human, UniProt P37840 1-140); assay: as above
[16] = biological target: alpha-synuclein peptide 1-112 (human); assay: as above
asyn_113-127_127A [17] = biological target: T2, asyn_113-127_127A; assay: Ala-scan peptide ELISA, row B, run 1
asyn_113-127_124G [18] = biological target: T3, asyn_113-127_124G; assay: Ala-scan peptide ELISA, row B, run 1
asyn_113-127_120A [19] = biological target: T5, asyn_113-127_120A; assay: Ala-scan peptide ELISA, row B, run 1
asyn_113-127_121A [20] = biological target: T6, asyn_113-127_121A; assay: Ala-scan peptide ELISA, row B, run 1
asyn_113-127_122A [21] = biological target: T7, asyn_113-127_122A; assay: Ala-scan peptide ELISA, row B, run 1
asyn_113-127_116A [22] = biological target: T8, asyn_113-127_116A; assay: Ala-scan peptide ELISA, row B, run 1
asyn_113-127_117A [23] = biological target: T12, asyn_113-127_117A; assay: Ala-scan peptide ELISA, row B, run 1
asyn_113-127_123A [24] = biological target: T13, asyn_113-127_123A; assay: Ala-scan peptide ELISA, row B, run 1
asyn_113-127_124P [25] = biological target: T17, asyn_113-127_124P; assay: Ala-scan peptide ELISA, row B, run 1
asyn_113-127_121A [26] = biological target: T6, asyn_113-127_121A; assay: Ala-scan peptide ELISA, row B, run 2
asyn_113-127_113A [27] = biological target: T15, asyn_113-127_113A; assay: Ala-scan peptide ELISA, row B, run 2

A450 (asyn_113-127_125A): 0.047 OD | A450 (asyn_113-127_127A [1]): 0.357 OD | A450 (asyn_113-127_124G [2]): 0.336 OD | A450 (asyn_113-127_119A): 0.051 OD | A450 (asyn_113-127_120A [3]): 0.277 OD | A450 [4]: 0.491 OD | A450 (asyn_113-127_121A [5]): 0.358 OD | A450 (asyn_113-127_122A [6]): 0.051 OD | A450 (asyn_113-127_116A [7]): 0.414 OD | A450 (asyn_113-127_126A): 0.375 OD | A450 (asyn_113-127_115A): 0.332 OD | A450 (asyn_113-127_118A): 0.415 OD | A450 (asyn_113-127_117A [8]): 0.431 OD | A450 (asyn_113-127_123A [9]): 0.43 OD | A450 (asyn_113-127_114A): 0.387 OD | A450 (asyn_113-127_113A [10]): 0.422 OD | A450 (asyn_113-127): 0.421 OD | A450 (asyn_113-127_124P [11]): 0.044 OD | EC50 (read off the curve) [13]: ~0.3 µg/mL | EC50 (read off the curve) [15]: ~0.2 µg/mL | A450 (asyn_113-127_127A [17]): 0.333 OD | A450 (asyn_113-127_124G [18]): 0.366 OD | A450 (asyn_113-127_120A [19]): 0.393 OD | A450 (asyn_113-127_121A [20]): 0.49 OD | A450 (asyn_113-127_122A [21]): 0.058 OD | A450 (asyn_113-127_116A [22]): 0.501 OD | A450 (asyn_113-127_117A [23]): 0.527 OD | A450 (asyn_113-127_123A [24]): 0.546 OD | A450 (asyn_113-127_124P [25]): 0.047 OD | A450 (asyn_113-127_121A [26]): 0.317 OD | A450 (asyn_113-127_113A [27]): 0.407 OD
B1: 20H4 (antibody, rat IgG2b, V domains shown)
VH: AVQLVESGGGLVQPKESLKISCAASGFTFSNAAMYWVRQAPGKGLELLARIRTKPNNYATYHADSVKGRFTISRDDSQSMVYLHMGNLKTEDTAMYYCTADMATGDYWGPGVMVTVSS
VL: DIQMTQSPPVLSVSVGDRVTLSCKASQNINKNLDWYQQKHGEAPKPLIYSTNNLQTGVPSRFSGSGSGTDYTLTISSLQPEDVATYYCYQYKSAWTFGGGTKLELR
notes: also called clone 20H4; rat 20H4
binding result [12]: no binding (tested: 10 µg/ml (1 on the log axis)) | binding result [14]: no binding (tested: 10 µg/ml (1 on the log axis)) | binding result [16]: no binding (tested: 10 µg/ml (1 on the log axis))
